From paper PMC12489471, “A multi-dentate, cooperative interaction between endo- and exo-ribonucleases within the bacterial RNA degradosome” (Nucleic Acids Research, 2025) come the findings set out here.

The labels stand for the following.
B5: E. coli PNPase core (domain or fragment, UniProt P05055 1-552, looked up)
chain: MLNPIVRKFQYGQHTVTLETGMMARQATAAVMVSMDDTAVFVTVVGQKKAKPGQDFFPLTVNYQERTYAAGRIPGSFFRREGRPSEGETLIARLIDRPIRPLFPEGFVNEVQVIATVVSVNPQVNPDIVAMIGASAALSLSGIPFNGPIGAARVGYINDQYVLNPTQDELKESKLDLVVAGTEAAVLMVESEAQLLSEDQMLGAVVFGHEQQQVVIQNINELVKEAGKPRWDWQPEPVNEALNARVAALAEARLSDAYRITDKQERYAQVDVIKSETIATLLAEDETLDENELGEILHAIEKNVVRSRVLAGEPRIDGREKDMIRGLDVRTGVLPRTHGSALFTRGETQALVTATLGTARDAQVLDELMGERTDTFLFHYNFPPYSVGETGMVGSPKRREIGHGRLAKRGVLAVMPDMDKFPYTVRVVSEITESNGSSSMASVCGASLALMDAGVPIKAAVAGIAMGLVKEGDNYVVLSDILGDEDHLGDMDFKVAGSRDGISALQMDIKIEGITKEIMQVALNQAKGARLHILGVMEQAINAPRGDISEFA
notes: polynucleotide phosphorylase (PNPase) core lacking the KH and S1 domains, E. coli, aa 1–552 by the methods (1–550 in the results and a legend); also called PNPase core (1–550); PNPase core (aa 1–552); source: E. coli Evo21(DE3), purified (Ni-NTA, intein cleavage, HIC, Q, Superdex 200); not shown: Mycobacterium xenopi GyrA intein, C-terminal, cleaved; His8, C-terminal, cleaved

Data set [1] addresses S. enterica PNPase core (Salmonella enterica serovar Typhimurium) (UniProt Q8ZLT3). As to the kind of experiment: cryo-EM structure; purified PNPase core and RNase E-muGFP-CHis mixed 1:2, complex separated on Superdex 200 Increase in 20 mM Tris–HCl pH 8.0, 25 mM MgCl2, 150 mM KCl, 1 mM TCEP; 8 mM CHAPSO; E. coli and S. enterica proteins.
In data set [2] the target is T1, PNPase carrying a C-terminal Hisx6 tag (E. coli polynucleotide phosphorylase) (E. coli, UniProt P05055 1-711).
T1 construct: Held on the NTA chip by its His tag in the SPR; also called PNPase C-His; PNPCHis; source: E. coli Evo21(DE3), purified (Ni-NTA, butyl-Sepharose, Q, SEC); not shown: His6, C-terminal, kept
T1 sequence (looked up): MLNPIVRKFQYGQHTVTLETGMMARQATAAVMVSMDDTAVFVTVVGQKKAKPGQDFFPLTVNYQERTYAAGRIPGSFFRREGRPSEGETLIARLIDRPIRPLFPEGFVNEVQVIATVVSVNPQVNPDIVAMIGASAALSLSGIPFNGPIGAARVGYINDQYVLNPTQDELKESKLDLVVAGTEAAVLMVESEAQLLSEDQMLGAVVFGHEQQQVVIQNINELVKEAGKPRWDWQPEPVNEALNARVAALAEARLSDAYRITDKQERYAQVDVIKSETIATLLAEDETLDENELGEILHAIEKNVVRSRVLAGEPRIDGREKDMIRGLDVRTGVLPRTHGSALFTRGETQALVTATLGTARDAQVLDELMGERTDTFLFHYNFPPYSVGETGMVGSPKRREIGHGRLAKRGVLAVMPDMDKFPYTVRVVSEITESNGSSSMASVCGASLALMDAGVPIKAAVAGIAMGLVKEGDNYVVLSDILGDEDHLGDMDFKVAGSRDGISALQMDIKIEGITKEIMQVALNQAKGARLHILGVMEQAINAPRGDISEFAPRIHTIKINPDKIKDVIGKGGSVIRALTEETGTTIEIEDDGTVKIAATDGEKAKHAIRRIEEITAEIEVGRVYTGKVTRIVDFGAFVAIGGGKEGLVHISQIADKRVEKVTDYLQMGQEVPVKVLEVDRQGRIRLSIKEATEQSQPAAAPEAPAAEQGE
As to the kind of experiment: SPR. Conditions: both partners purified.

The target in the data set “E. coli PNPase core” is B5. As to the kind of experiment: cryo-EM structure; purified PNPase core and RNase E-muGFP-CHis mixed 1:2, complex separated on Superdex 200 Increase in 20 mM Tris–HCl pH 8.0, 25 mM MgCl2, 150 mM KCl, 1 mM TCEP; 8 mM CHAPSO; E. coli and S. enterica proteins. Conditions: both partners purified.
In another data set the test system is PNPase core. As to the kind of experiment: Cryo-EM of E. coli PNPase core:RNase E complex. It is filed as binding. Conditions: 20 mM Tris–HCl pH 8.0, 25 mM MgCl2, 150 mM KCl, 1 mM TCEP. As to the method:
The PNPase core encoding sequence from E. coli (aa 1–552), Salmonella enterica serovar Typhimurium (UniProt: Q8ZLT3) (aa 1–552), or Pseudomonas aeruginosa (strain PAO1, UniProt: Q9HV59) (aa 1–553) was amplified using corresponding genomic DNA as a template and cloned into pExp-Mxe-CHis expression vector. The protein of interest, produced as a fusion with C-terminal 8×His-tagged Mycobacterium xenopi GyrA intein, was expressed in Evo21(DE3) cells at 18°C overnight following induction with 0.4 mM IPTG. […] After cleavage, the protein buffer was exchanged using HiPrep 26/10 desalting column (Cytiva), and the protein solution was reapplied to Ni-NTA resin to remove His-tagged intein and uncleaved material. […]
Purified PNPase core and RNE-muGFP-CHis proteins were mixed in 1:2 ratio and their complex were separated on the Superdex 200 Increase 10/300 GL column (Cytiva) equilibrated with cryo-EM Buffer (20 mM Tris–HCl, pH 8.0, 25 mM MgCl2, 150 mM KCl, 1 mM TCEP). […] The samples were mixed with CHAPSO (3-([3-cholamidopropyl]dimethylammonio)-2-hydroxy-1-propanesulfonate) at a final concentration of 8 mM before being applied onto R2/2 Au Ultrafoil grids (Quantifoil) that had been pre-treated by glow-discharge (PELCO easiGLOW: 60 s, 25 mA, 0.39 mBar). […]

The target of data set [3] is T2, PNPase carrying a C-terminal Hisx6 tag (E. coli polynucleotide phosphorylase) (E. coli, UniProt P05055 1-711).
T2 construct: polynucleotide phosphorylase (PNPase), E. coli; Immobilised through the His tag on an NTA chip for SPR; also called PNPase C-His; PNPase with a 6xHisTag at the CTD; source: E. coli Evo21(DE3), purified (Ni-NTA, butyl-Sepharose HIC, Q, Superdex S200); not shown: His6, C-terminal, kept
T2 sequence (looked up): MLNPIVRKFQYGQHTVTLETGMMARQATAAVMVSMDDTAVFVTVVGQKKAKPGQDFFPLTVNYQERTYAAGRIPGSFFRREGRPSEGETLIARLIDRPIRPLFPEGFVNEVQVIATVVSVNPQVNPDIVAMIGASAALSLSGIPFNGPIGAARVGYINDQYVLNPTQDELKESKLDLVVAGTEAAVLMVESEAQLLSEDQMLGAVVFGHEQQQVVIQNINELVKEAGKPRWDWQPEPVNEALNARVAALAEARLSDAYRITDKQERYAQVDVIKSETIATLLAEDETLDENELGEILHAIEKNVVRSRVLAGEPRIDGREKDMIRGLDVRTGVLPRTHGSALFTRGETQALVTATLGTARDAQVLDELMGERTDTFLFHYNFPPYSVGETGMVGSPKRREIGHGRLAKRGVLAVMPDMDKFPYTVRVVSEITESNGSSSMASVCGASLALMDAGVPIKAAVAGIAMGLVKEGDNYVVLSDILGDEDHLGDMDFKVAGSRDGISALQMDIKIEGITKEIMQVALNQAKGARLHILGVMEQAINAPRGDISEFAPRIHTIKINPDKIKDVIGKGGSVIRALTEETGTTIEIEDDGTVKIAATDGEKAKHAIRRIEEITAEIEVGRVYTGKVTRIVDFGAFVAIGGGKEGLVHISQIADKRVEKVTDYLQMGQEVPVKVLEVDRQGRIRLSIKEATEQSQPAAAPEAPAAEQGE
Briefly: SPR; PNPase with C-terminal His6 tag immobilised on Series S Sensor Chip NTA (5 RU); Biacore T200, 25°C; 20 mM HEPES pH 7.2, 150 mM NaCl, 5 mM MgCl2, 0.5 mM TCEP, 0.05% Tween 20; six peptide concentrations up to 9000 nM (up to 5000 nM for RNase E 985–1061); contact 60 s, dissociation 120 s. Conditions: both partners purified. (In general: SPR reads the build-up and loss of mass on a sensor chip optically.)

Data set [4] addresses T2, PNPase carrying a C-terminal Hisx6 tag …. The description is as above. Conditions: both partners purified. This is another data set of the same source.
Data set [5] concerns the molecule itself. Briefly: cryo-EM structure; PNPase core with RNase E peptide 960–1061; resolution of the peptide insufficient to align the sequence.

The molecule “S. enterica RNase E 921–1067-muGFP (domain or fragment)” showed a stoichiometry N (RNase E peptide per PNPase trimer) in data set [1] of 1.

B1: RNase E 960 – 1061 R1056A (domain or fragment, E. coli, UniProt P21513 960-1061, looked up)
chain: VVETAEVVVAEPEVVAQPAAPVVAEVAAEVETVAAVEPEVTVEHNHATAPMTRAPAPEYVPEAPRHSDWQRPTFAFEGKGAAGGHTATHHASAAPAAPQPVE
notes: source: E. coli Evo21(DE3), purified (Ni-NTA, amylose, TEV cleavage, Q, SEC); not shown: His6, N-terminal, cleaved; MBP, N-terminal, cleaved; intein, C-terminal, cleaved
In general, kon refers to the rate constant with which the complex forms. Low values mean slower complex formation, high ones faster complex formation. Consider B1, for which the on-rate (kon) in data set [2] was 150000 M⁻¹ s⁻¹.

B2: E. coli RNase E 921–1061-muGFP (domain or fragment, UniProt P21513 921-1061, looked up)
chain: AVTEQPQVITESDVAVAQEVAEQAEPVVEPQEETADIEEVVETAEVVVAEPEVVAQPAAPVVAEVAAEVETVAAVEPEVTVEHNHATAPMTRAPAPEYVPEAPRHSDWQRPTFAFEGKGAAGGHTATHHASAAPARPQPVE
notes: Only residues 1003–1057 are built in the model; also called RNase E-muGFP-Chis; RNE-muGFP-CHis; source: E. coli Evo21(DE3), purified (Ni-NTA, amylose, TEV, Q, Superdex 200); not shown: MBP, N-terminal, cleaved; muGFP, C-terminal, kept; His8, C-terminal, kept
In general, stoichiometry N refers to a count of units in the complex or per binding partner. In the case of B2, in the data set with E. coli PNPase core, the “stoichiometry N” value was 1 RNase E peptide per PNPase trimer.

B3: RNase E 921–1061-muGFP (protein, UniProt P21513 921-1061, looked up, fragment)
chain: AVTEQPQVITESDVAVAQEVAEQAEPVVEPQEETADIEEVVETAEVVVAEPEVVAQPAAPVVAEVAAEVETVAAVEPEVTVEHNHATAPMTRAPAPEYVPEAPRHSDWQRPTFAFEGKGAAGGHTATHHASAAPARPQPVE
modifications: muGFP fusion
Consider B3, for which the “binding mode / stoichiometry with E. coli PNPase core” value in the data set on PNPase core is “only one RNase E peptide engages with a PNPase trimer, interacting with two protomers”.

B4: RNase E 985-1053 (domain or fragment, E. coli, UniProt P21513 985-1053, looked up)
chain: VAAEVETVAAVEPEVTVEHNHATAPMTRAPAPEYVPEAPRHSDWQRPTFAFEGKGAAGGHTATHHASAA
notes: the SPR methods name a peptide 960–1053; Lacks the terminal Pro-rich motif; Limits differ between results (985–1053) and methods (960–1053); also called RNase E peptide 985–1053; RNase E 960–1053 (methods); source: E. coli Evo21(DE3), pMxe vector, purified (Ni-NTA, amylose, TEV, Q, Superdex 75); not shown: His6, N-terminal, cleaved; MBP, N-terminal, cleaved; intein, C-terminal, cleaved
As a reminder, the Kd is the concentration at which binding is half-saturated. The koff is a measure of how fast the partners let go of each other. Read a high koff as fast dissociation. In data set [3], B4 returned a Kd of 100 µM. In data set [4], this molecule had a Kd of 11.5 µM, a koff of 0.339 s⁻¹ and a kon of 29400 M⁻¹ s⁻¹.

Take B5: the “stoichiometry N” value in data set [5] was 3.
